Data taken from patent US20140087995A1 (published 2014).
Numbered stars: 1 amine (or outer) side, 2 acyl side, 3 side chain; on linkers, the order of the positions; unused ones are H or OH. Bridge positions count the residues as written; N and C are the ends. Side chains are listed from the residue outwards. Ends that are not written are not given here. * marks the point of attachment. C20 diacid = O=C(O)CCCCCCCCCCCCCCCCCCC(=O)*; γGlu = O=C(O)[C@H](CCC(=O)[*:2])N[*:1]

T1: rat amylin receptor (rat calcitonin receptor + rat RAMP 3) (rat, UniProt P32214 25-516; Q9JJ73 23-147)
T1 construct: whole, on cells; also called rAmylin-R; rat amylin 3(a) receptor
T1 sequence (looked up) 1: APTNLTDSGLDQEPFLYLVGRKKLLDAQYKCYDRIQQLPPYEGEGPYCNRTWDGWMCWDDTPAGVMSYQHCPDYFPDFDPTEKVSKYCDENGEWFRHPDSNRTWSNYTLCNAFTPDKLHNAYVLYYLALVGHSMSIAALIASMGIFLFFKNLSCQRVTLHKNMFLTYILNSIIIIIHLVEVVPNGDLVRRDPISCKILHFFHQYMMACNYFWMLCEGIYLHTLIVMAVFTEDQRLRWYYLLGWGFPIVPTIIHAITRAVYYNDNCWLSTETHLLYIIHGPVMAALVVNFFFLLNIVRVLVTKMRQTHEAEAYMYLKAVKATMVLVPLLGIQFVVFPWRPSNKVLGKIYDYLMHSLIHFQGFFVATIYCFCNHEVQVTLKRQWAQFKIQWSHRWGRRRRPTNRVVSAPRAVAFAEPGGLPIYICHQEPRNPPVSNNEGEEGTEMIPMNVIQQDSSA
T1 sequence (looked up) 2: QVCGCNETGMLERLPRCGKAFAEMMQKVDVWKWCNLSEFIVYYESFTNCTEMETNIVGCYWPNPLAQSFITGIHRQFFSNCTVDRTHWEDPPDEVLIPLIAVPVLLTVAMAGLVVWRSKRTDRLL

T2: rat calcitonin receptor (rat, UniProt P32214 25-516)
T2 construct: whole, on cells; also called rCTR; rat calcitonin (a) receptor
T2 sequence (looked up): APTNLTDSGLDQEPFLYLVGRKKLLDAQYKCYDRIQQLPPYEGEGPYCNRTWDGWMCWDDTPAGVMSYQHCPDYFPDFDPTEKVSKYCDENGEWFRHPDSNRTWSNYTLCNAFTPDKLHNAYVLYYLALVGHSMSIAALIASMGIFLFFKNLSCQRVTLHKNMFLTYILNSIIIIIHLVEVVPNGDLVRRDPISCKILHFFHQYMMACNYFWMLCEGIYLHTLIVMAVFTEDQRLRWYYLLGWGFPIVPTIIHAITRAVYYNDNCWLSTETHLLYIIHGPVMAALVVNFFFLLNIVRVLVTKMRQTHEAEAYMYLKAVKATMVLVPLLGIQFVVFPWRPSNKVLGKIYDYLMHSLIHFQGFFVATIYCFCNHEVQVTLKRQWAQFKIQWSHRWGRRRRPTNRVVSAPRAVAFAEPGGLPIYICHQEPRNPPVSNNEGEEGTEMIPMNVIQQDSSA

T3: human calcitonin receptor (human, UniProt P30988 25-474)
T3 construct: whole, on cells; also called hCTR; hCT
T3 sequence (looked up): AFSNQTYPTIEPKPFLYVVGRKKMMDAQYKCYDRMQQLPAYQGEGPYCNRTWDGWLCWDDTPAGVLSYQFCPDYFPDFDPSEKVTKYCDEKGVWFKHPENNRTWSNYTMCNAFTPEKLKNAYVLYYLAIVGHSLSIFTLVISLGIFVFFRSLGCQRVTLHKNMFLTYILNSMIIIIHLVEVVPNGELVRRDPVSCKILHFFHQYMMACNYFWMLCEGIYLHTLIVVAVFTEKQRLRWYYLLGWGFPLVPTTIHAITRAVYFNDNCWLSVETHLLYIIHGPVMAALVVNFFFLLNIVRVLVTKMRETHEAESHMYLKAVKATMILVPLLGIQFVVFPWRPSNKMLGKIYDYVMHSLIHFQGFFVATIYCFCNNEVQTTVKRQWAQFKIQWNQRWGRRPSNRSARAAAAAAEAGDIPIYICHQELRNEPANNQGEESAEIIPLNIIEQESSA


Key:
[1] = target: T1, rat amylin receptor (rat calcitonin …); test: SPA competition with 125I-rat amylin, membranes of BHK cells with rat calcitonin receptor + rat RAMP3 (Assay VI)
rat calcitonin receptor [2] = target: T2, rat calcitonin receptor; test: ratio of binding IC50s: rat calcitonin receptor over rat amylin receptor (reference)
rat calcitonin receptor [3] = target: T2, rat calcitonin receptor; test: SPA competition with 125I-calcitonin, membranes of BHK cells with rat calcitonin receptor (Assay VIII)
[4] = target: T3, human calcitonin receptor; test: ratio of binding IC50s: human calcitonin receptor over human amylin receptor (reference)
In short: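 Membranes (35 ng/μL final) + SPA beads, 50 mM Hepes pH 7.4 buffer with 1 mM CaCl2, 5 mM MgCl₂, 0.1% OA, 0.02% Tween20; 120 min, 25° C, shaking; centrifuged, counted; IC₅₀ by one-site binding competition.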

| Binder | IC50 [1] | Ratio rCT/rAmylin binding (rat calcitonin receptor [2]) | IC50 (rat calcitonin receptor [3]) | Ratio hCT/hAmylin binding [4] |
| --- | --- | --- | --- | --- |
| K([γGlu-C20 diacid])CNTATCATQRLAHFLRHSSPNFGAIPSSTNVGPNTY-NH2 (disulfide 2-7; N-terminus assumed; SMILES CC[C@H](C)[C@H](NC(=O)[C@H](C)NC(=O)CNC(=O)[C@H](Cc1ccccc1)NC(=O)[C@H](CC(N)=O)NC(=O)[C@@H]1CCCN1C(=O)[C@H](CO)NC(=O)[C@H](CO)NC(=O)[C@H](Cc1c[nH]cn1)NC(=O)[C@H](CCCNC(=N)N)NC(=O)[C@H](CC(C)C)NC(=O)[C@H](Cc1ccccc1)NC(=O)[C@H](Cc1c[nH]cn1)NC(=O)[C@H](C)NC(=O)[C@H](CC(C)C)NC(=O)[C@H](CCCNC(=N)N)NC(=O)[C@H](CCC(N)=O)NC(=O)[C@@H](NC(=O)[C@H](C)NC(=O)[C@@H]1CSSC[C@H](NC(=O)[C@@H](N)CCCCNC(=O)CC[C@H](NC(=O)CCCCCCCCCCCCCCCCCCC(=O)O)C(=O)O)C(=O)N[C@@H](CC(N)=O)C(=O)N[C@@H]([C@@H](C)O)C(=O)N[C@@H](C)C(=O)N[C@@H]([C@@H](C)O)C(=O)N1)[C@@H](C)O)C(=O)N1CCC[C@H]1C(=O)N[C@@H](CO)C(=O)N[C@@H](CO)C(=O)N[C@H](C(=O)N[C@@H](CC(N)=O)C(=O)N[C@H](C(=O)NCC(=O)N1CCC[C@H]1C(=O)N[C@@H](CC(N)=O)C(=O)N[C@H](C(=O)N[C@@H](Cc1ccc(O)cc1)C(N)=O)[C@@H](C)O)C(C)C)[C@@H](C)O, synthetic analogue of human amylin; also called compound 67) | 0.172 nM | 85.4 | 14.7 nM | 51.6 |
| K([γGlu-γGlu-C20 diacid])CNTATCATQRLANFLRHSSPNFGAIPSSTNVGHNTY-NH2 (disulfide 2-7; N-terminus assumed; SMILES CC[C@H](C)[C@H](NC(=O)[C@H](C)NC(=O)CNC(=O)[C@H](Cc1ccccc1)NC(=O)[C@H](CC(N)=O)NC(=O)[C@@H]1CCCN1C(=O)[C@H](CO)NC(=O)[C@H](CO)NC(=O)[C@H](Cc1c[nH]cn1)NC(=O)[C@H](CCCNC(=N)N)NC(=O)[C@H](CC(C)C)NC(=O)[C@H](Cc1ccccc1)NC(=O)[C@H](CC(N)=O)NC(=O)[C@H](C)NC(=O)[C@H](CC(C)C)NC(=O)[C@H](CCCNC(=N)N)NC(=O)[C@H](CCC(N)=O)NC(=O)[C@@H](NC(=O)[C@H](C)NC(=O)[C@@H]1CSSC[C@H](NC(=O)[C@@H](N)CCCCNC(=O)CC[C@H](NC(=O)CC[C@H](NC(=O)CCCCCCCCCCCCCCCCCCC(=O)O)C(=O)O)C(=O)O)C(=O)N[C@@H](CC(N)=O)C(=O)N[C@@H]([C@@H](C)O)C(=O)N[C@@H](C)C(=O)N[C@@H]([C@@H](C)O)C(=O)N1)[C@@H](C)O)C(=O)N1CCC[C@H]1C(=O)N[C@@H](CO)C(=O)N[C@@H](CO)C(=O)N[C@H](C(=O)N[C@@H](CC(N)=O)C(=O)N[C@H](C(=O)NCC(=O)N[C@@H](Cc1c[nH]cn1)C(=O)N[C@@H](CC(N)=O)C(=O)N[C@H](C(=O)N[C@@H](Cc1ccc(O)cc1)C(N)=O)[C@@H](C)O)C(C)C)[C@@H](C)O, synthetic analogue of human amylin; also called compound 86) | 2.8 nM | 126 | 352 nM | 159 |
| K([γGlu-γGlu-C20 diacid])CNTATCATQRLAEFLRHSSPNFGAIPSSTNVGRNTY-NH2 (disulfide 2-7; N-terminus assumed; SMILES CC[C@H](C)[C@H](NC(=O)[C@H](C)NC(=O)CNC(=O)[C@H](Cc1ccccc1)NC(=O)[C@H](CC(N)=O)NC(=O)[C@@H]1CCCN1C(=O)[C@H](CO)NC(=O)[C@H](CO)NC(=O)[C@H](Cc1c[nH]cn1)NC(=O)[C@H](CCCNC(=N)N)NC(=O)[C@H](CC(C)C)NC(=O)[C@H](Cc1ccccc1)NC(=O)[C@H](CCC(=O)O)NC(=O)[C@H](C)NC(=O)[C@H](CC(C)C)NC(=O)[C@H](CCCNC(=N)N)NC(=O)[C@H](CCC(N)=O)NC(=O)[C@@H](NC(=O)[C@H](C)NC(=O)[C@@H]1CSSC[C@H](NC(=O)[C@@H](N)CCCCNC(=O)CC[C@H](NC(=O)CC[C@H](NC(=O)CCCCCCCCCCCCCCCCCCC(=O)O)C(=O)O)C(=O)O)C(=O)N[C@@H](CC(N)=O)C(=O)N[C@@H]([C@@H](C)O)C(=O)N[C@@H](C)C(=O)N[C@@H]([C@@H](C)O)C(=O)N1)[C@@H](C)O)C(=O)N1CCC[C@H]1C(=O)N[C@@H](CO)C(=O)N[C@@H](CO)C(=O)N[C@H](C(=O)N[C@@H](CC(N)=O)C(=O)N[C@H](C(=O)NCC(=O)N[C@@H](CCCNC(=N)N)C(=O)N[C@@H](CC(N)=O)C(=O)N[C@H](C(=O)N[C@@H](Cc1ccc(O)cc1)C(N)=O)[C@@H](C)O)C(C)C)[C@@H](C)O, synthetic analogue of human amylin; also called compound 88) | 2.31 nM | 84.9 | 196 nM | 46.5 |
| K([γGlu-γGlu-C20 diacid])CNTATCATQRLAEFLRHSSPNFGAIPSSTNVGSRTY-NH2 (disulfide 2-7; N-terminus assumed; SMILES CC[C@H](C)[C@H](NC(=O)[C@H](C)NC(=O)CNC(=O)[C@H](Cc1ccccc1)NC(=O)[C@H](CC(N)=O)NC(=O)[C@@H]1CCCN1C(=O)[C@H](CO)NC(=O)[C@H](CO)NC(=O)[C@H](Cc1c[nH]cn1)NC(=O)[C@H](CCCNC(=N)N)NC(=O)[C@H](CC(C)C)NC(=O)[C@H](Cc1ccccc1)NC(=O)[C@H](CCC(=O)O)NC(=O)[C@H](C)NC(=O)[C@H](CC(C)C)NC(=O)[C@H](CCCNC(=N)N)NC(=O)[C@H](CCC(N)=O)NC(=O)[C@@H](NC(=O)[C@H](C)NC(=O)[C@@H]1CSSC[C@H](NC(=O)[C@@H](N)CCCCNC(=O)CC[C@H](NC(=O)CC[C@H](NC(=O)CCCCCCCCCCCCCCCCCCC(=O)O)C(=O)O)C(=O)O)C(=O)N[C@@H](CC(N)=O)C(=O)N[C@@H]([C@@H](C)O)C(=O)N[C@@H](C)C(=O)N[C@@H]([C@@H](C)O)C(=O)N1)[C@@H](C)O)C(=O)N1CCC[C@H]1C(=O)N[C@@H](CO)C(=O)N[C@@H](CO)C(=O)N[C@H](C(=O)N[C@@H](CC(N)=O)C(=O)N[C@H](C(=O)NCC(=O)N[C@@H](CO)C(=O)N[C@@H](CCCNC(=N)N)C(=O)N[C@H](C(=O)N[C@@H](Cc1ccc(O)cc1)C(N)=O)[C@@H](C)O)C(C)C)[C@@H](C)O, synthetic analogue of human amylin; also called compound 89) | 2.37 nM | 48.8 | 115 nM | 28 |
| K([γGlu-γGlu-C20 diacid])CNTATCATQRLAEFLRHSSPNFGAIPSSTNVGHNTY-NH2 (disulfide 2-7; N-terminus assumed; SMILES CC[C@H](C)[C@H](NC(=O)[C@H](C)NC(=O)CNC(=O)[C@H](Cc1ccccc1)NC(=O)[C@H](CC(N)=O)NC(=O)[C@@H]1CCCN1C(=O)[C@H](CO)NC(=O)[C@H](CO)NC(=O)[C@H](Cc1c[nH]cn1)NC(=O)[C@H](CCCNC(=N)N)NC(=O)[C@H](CC(C)C)NC(=O)[C@H](Cc1ccccc1)NC(=O)[C@H](CCC(=O)O)NC(=O)[C@H](C)NC(=O)[C@H](CC(C)C)NC(=O)[C@H](CCCNC(=N)N)NC(=O)[C@H](CCC(N)=O)NC(=O)[C@@H](NC(=O)[C@H](C)NC(=O)[C@@H]1CSSC[C@H](NC(=O)[C@@H](N)CCCCNC(=O)CC[C@H](NC(=O)CC[C@H](NC(=O)CCCCCCCCCCCCCCCCCCC(=O)O)C(=O)O)C(=O)O)C(=O)N[C@@H](CC(N)=O)C(=O)N[C@@H]([C@@H](C)O)C(=O)N[C@@H](C)C(=O)N[C@@H]([C@@H](C)O)C(=O)N1)[C@@H](C)O)C(=O)N1CCC[C@H]1C(=O)N[C@@H](CO)C(=O)N[C@@H](CO)C(=O)N[C@H](C(=O)N[C@@H](CC(N)=O)C(=O)N[C@H](C(=O)NCC(=O)N[C@@H](Cc1c[nH]cn1)C(=O)N[C@@H](CC(N)=O)C(=O)N[C@H](C(=O)N[C@@H](Cc1ccc(O)cc1)C(N)=O)[C@@H](C)O)C(C)C)[C@@H](C)O, synthetic analogue of human amylin; also called compound 87) | 2.07 nM | 45.6 | 94.5 nM | 35.6 |
